The chains are these.
B1: GST-HYP [Drosophila] / V5-KSR [Drosophila] (parent)
chain 1: MSSNNNAPASAPDTGSTNANDPISGSLSVDSNLVIIQDMIDLSANHLEGLRTQCAISSTLTQQEIRCLESKLVRYFSELLLAKMRLNERIPANGLVPHTTGNELRQWLRVVGLSQGTLTACLARLTTLEQSLRLSDEEIRQLLADSPSQREEEELRRLTRAMQNLRKCMESLESGTAASNNDPEQWHWDSWDRPTHIHRGSVGNIGLGNNSTASPRTHHRQHGVKGKNSALANSTNFKSGRQSPSATEELNSTQGSQLTLTLTPSPPNSPFTPSSGLSSSLNGTPQRSRGTPPPARKHQTLLSQSHVQVDGEQLARNRLPTDPSPDSHSSTSSDIFVDPNTNASSGGSSSNVLMVPCSPGVGHVGMGHAIKHRFTKALGFMATCTLCQKQVFHRWMKCTDCKYICHKSCAPHVPPSCGLPREYVDEFRHIKEQGGYASLPHVHGAAKGSPLVKKSTLGKPLHQQHGDSSSPSSSCTSSTPSSPALFQQRERELDQAGSSSSANLLPTPSLGKHQPSQFNFPNVTVTSSGGSGGVSLISNEPVPEQFPTAPATANGGLDSLVSSSNGHMSSLIGSQTSNASTAATLTGSLVNSTTTTSTCSFFPRKLSTAGVDKRTPFTSEYTDTHKSNDSDKTVSLSGSASTDSDRTPVRVDSTEDGDSGQWRQNSISLKEWDIPYGDLLLLERIGQGRFGTVHRALWHGDVAVKLLNEDYLQDEHMLETFRSEVANFKNTRHENLVLFMGACMNPPYLAIVTSLCKGNTLYTYIHQRREKFAMNRTLLIAQQIAQGMGYLHAREIIHKDLRTKNIFIENGKVIITDFGLFSSTKLLYCDMGLGVPHNWLCYLAPELIRALQPEKPRGECLEFTPYSDVYSFGTVWYELICGEFTFKDQPAESIIWQVGRGMKQSLANLQSGRDVKDLLMLCWTYEKEHRPQFARLLSLLEHLPKKRLARSPSHPVNLSRSAESVF
chain 2: MGEETINSTQNKTRTKTTRPKAVYLWTVSDVLKWYRRHCGEYTQYEQLFAQHDITGRALLRITDSSLQRMGVTDNRDREAIWREIVKQRLKTDIMEIRDMERLNIY
B2: Flag-CNK^2–549 [Drosophila] / Myc-MEK [Drosophila] (parent)
chain 1: MSKNKLNLVLPPVNTEATVAAATVAPTPPFKTPSGTDTHSLLGKPKTSIDALTETLEGLDMGDTERKRIKMFLSQKEKIGELSDEDLEKLGELGSGNGGVVMKVRHTHTHLIMARKLIHLEVKPAIKKQILRELKVLHECNFPHIVGFYGAFYSDGEISICMEYMDGGSLDLILKRAGRIPESILGRITLAVLKGLSYLRDNHAIIHRDVKPSNILVNSSGEIKICDFGVSGQLIDSMANSFVGTRSYMSPERLQGTHYSVQSDIWSLGLSLVEMAIGMYPIPPPNTATLESIFADNAEESGQPTDEPRAMAIFELLDYIVNEPPPKLEHKIFSTEFKDFVDICLKKQPDERADLKTLLSHPWIRKAELEEVDISGWVCKTMDLPPSTPKRNTSPN
chain 2: AYINIAEWTPDQVTDWIKGLDESMKGYLYEFSKQEIGGRALLNIRPYELENLGMLRIGHQEIVLEAVENLRNFHYHLKNDNLQFMALHVATAAKNLHRELARNHAESTKIDTRILHDITRTIATLKPLVGSLERTPFRKQEMYREYCGNVLKCGLELATIAHRDRFALQPVPAIRQSAERLENLANFVIQDISDPMVLQPASLNLVTLKKRESELGFNIESSYNGIHRVTDIKYNSPAHNSGKIEDGDEIVQINYQTVVGWQHRTVLEHLREALPDVVLTVKKRPKHTKMFGQIYMQPYRLPSKKRNMAARWAAQMPSPRAAFLTLDTEQLATGGTGSAVPDPSKSLSSEKREVLTKANPVSSASDSDSSCSDIPTPTDPKLAAREIRLYYPKPRALLQRRNTICGCEYLSLKNSDLVVPSWHERKPGIGSPTNCDPGSPSIRDKSISFGYGLEMAARPTTCIGIAGDTSTDKARRMFHEARKLKQLTEDSQREFLVDRYKPGVSKVVRFDAKEDYVMKNEKFICNVENTILETFEPIPFADEGDEDA
B3: GST-HYP [Drosophila] / Myc-MEK [Drosophila] (parent)
chain 1: B2 chain 1
chain 2: B1 chain 2
B4: Flag-CNK^2–549 [Drosophila] / V5-KSR [Drosophila] (parent)
chain 1: B1 chain 1
chain 2: B2 chain 2

The text below walks through data of publication PMC11257983 (2024).

One assay covers variants of B1. Description: GST pull-down, immunoblot quantification. Conditions: with V5-KSR [Drosophila]; S2 cells; GST-HYP, Flag-CNK2–549 + RRKM co-expressed; anti-V5 (KSR) blot; parent: 1. (In general: Immunoblotting shows a protein as a band on a membrane.)
chain 2 I97D: the ratio to parent was determined as 0.62.
chain 2 L90D I97D: the ratio to parent amounted to 0.05.
As to chain 2 L90D, the ratio to parent is 0.13.

Variants of B2 are the subject of another assay. Description: GST pull-down, immunoblot quantification. Conditions: with Myc-MEK [Drosophila]; S2 cells; GST-HYP + RRKM co-expressed; captured via GST-HYP; anti-Myc (MEK) blot; parent: 1.
With chain 2 A66F, the ratio to parent worked out at 1.08.
On the same count and under the same terms, in the case of chain 2 E249R V251R it was 0.06; in that of chain 2 K282D, 0.1; in that of chain 2 F73R V251R, 0.5.
The same measure, in the same setting: in the case of chain 2 D80R K282D it was 0.34; in that of chain 2 E249R, 0.76; in that of chain 2 A66F F73R, 0.48.
Same read-out and setting: in the case of chain 2 F73R it was 0.82; in that of chain 2 D80R, 0.9; in that of chain 2 V251R, 0.78.
For the variant chain 2 F73R E249R, the ratio to parent was determined as 0.13.

Still in this assay, the particulars now being: with Myc-MEK [Drosophila]; S2 cells; GST-HYP, Flag-CNK2–549 + RRKM co-expressed; captured via GST-HYP; anti-Myc (MEK) blot; parent: 1.
Turning to chain 2 I122D L151D, the ratio to parent was 0.01.
Still for that read-out and setting: in the case of chain 2 L151D it was 0.05.
Turning to chain 2 I122D, the ratio to parent was found to be 0.77.

Still in this assay, the particulars now being: with Myc-MEK [Drosophila]; S2 cells; GST-HYP + RRKM (Ha-RASV12, Pyo-RAF, V5-KSR, Myc-MEK) co-expressed; captured via GST-HYP; anti-MEK blot; parent: 1.
In the case of chain 2 V197E, the ratio to parent was 0.04.

The same assay, now with this note: with Myc-MEK [Drosophila]; S2 cells; GST-HYP, V5-KSR, Myc-MEK co-expressed; captured via GST-HYP; anti-MEK blot; parent: 1.
For the variant chain 2 V197E, the ratio to parent came to 0.03.
Same read-out and setting: in the case of chain 2 D194K V197E it was 0.02.

The next assay covers variants of B3. The assay is described as follows: GST pull-down, immunoblot quantification. The settings on record: with Myc-MEK [Drosophila]; S2 cells; GST-HYP, Flag-CNK2–549 + RRKM co-expressed; anti-Myc (MEK) blot; parent: 1.
chain 2 I97D: the ratio to parent was determined as 0.68.
Still for that read-out and setting: the same measure for chain 2 L90D I97D: 0.04; for chain 2 L90D: 0.09.

In the next assay the parent is B4. The assay is described as follows: GST pull-down, immunoblot quantification. Conditions: with V5-KSR [Drosophila], S2 cells, GST-HYP, Myc-MEK co-expressed, captured via GST-HYP, anti-V5 (KSR) blot, parent: 1.
Regarding chain 2 A40F, the ratio to parent was 0.93.
Same read-out and setting: in the case of chain 2 M196E it was 0.62; in that of chain 2 K109E, 0.92; in that of chain 2 T135F, 0.95.
Same read-out and setting: the same measure for chain 2 H263A: 0.9; for chain 2 K33D: 0.95.
On the same count and under the same terms, the same measure for chain 2 R264E: 0.89; for chain 2 L267R: 0.89.

In another assay the parent is B4. Description: GST pull-down, immunoblot quantification. The settings on record: with Flag-CNK^2–549 [Drosophila]; S2 cells; Flag-CNK2–549, GST-HYP + RRM (Ha-RASV12, Pyo-RAF, Myc-MEK) co-expressed; captured via GST-HYP; anti-Myc (MEK) blot; parent: 1.
In the case of chain 1 M902D, the ratio to parent turned out to be 0.05.
On the same count and under the same terms, in the case of chain 1 K903D it was 0.04.
On the same count and under the same terms, the same measure for chain 1 Y925D: 0.07; for chain 1 E926R: 1.23.

Staying with this assay, now noted: with Flag-CNK^2–549 [Drosophila]; S2 cells; Flag-CNK2–549, GST-HYP + RRM (Ha-RASV12, Pyo-RAF, Myc-MEK) co-expressed; captured via GST-HYP; anti-V5 (KSR) blot; parent: 1.
Consider chain 1 M902D, for which the ratio to parent came to 0.07.
Same read-out and setting: in the case of chain 1 K903D it was 0.07; in that of chain 1 Y925D, 0.12.
On the same count and under the same terms, the same measure for chain 1 E926R: 1.07.

Staying with this assay, now noted: with V5-KSR [Drosophila]; S2 cells; GST-HYP + RRKM co-expressed; captured via GST-HYP; anti-V5 (KSR) blot; parent: 1.
As to chain 2 D80R K282D, the ratio to parent is 0.16.
On the same count and under the same terms, in the case of chain 2 A66F F73R it was 0.66; in that of chain 2 D80R, 0.61; in that of chain 2 E249R, 0.82.
With chain 2 A66F, the ratio to parent was 0.97.
As for chain 2 F73R V251R, the ratio to parent was 0.72.
The same measure, in the same setting: the same measure for chain 2 F73R E249R: 0.16; for chain 2 V251R: 0.79.
Same read-out and setting: the same measure for chain 2 E249R V251R: 0.08.
For the variant chain 2 F73R, the ratio to parent came out at 0.87.
Same read-out and setting: the same measure for chain 2 K282D: 0.03.

Staying with this assay, now noted: with V5-KSR [Drosophila]; S2 cells; Flag-CNK2–549, V5-KSR, Myc-MEK, GST-HYP co-expressed; captured via GST-HYP; anti-V5 (KSR) blot; parent: 1.
For the variant chain 2 Q83E, the ratio to parent is 0.16.
As for chain 2 R98E, the ratio to parent is 0.81.
Regarding chain 2 N81E, the ratio to parent worked out at 0.15.
Turning to chain 2 N81W, the ratio to parent came to 0.07.
As to chain 2 Y75R, the ratio to parent was found to be 0.74.
On the same count and under the same terms, in the case of chain 2 R45F it was 0.99.
The same measure, in the same setting: the same measure for chain 2 N95E: 0.92.

The same assay, now with this note: with Flag-CNK^2–549 [Drosophila]; S2 cells; Flag-CNK2–549, V5-KSR, Myc-MEK, GST-HYP co-expressed; captured via GST-HYP; anti-Myc (MEK) blot; parent: 1.
For the variant chain 1 R913E, the ratio to parent came to 0.83.

Still in this assay, the particulars now being: with Flag-CNK^2–549 [Drosophila]; S2 cells; Flag-CNK2–549, V5-KSR, Myc-MEK, GST-HYP co-expressed; captured via GST-HYP; anti-V5 (KSR) blot; parent: 1.
For chain 1 R913E, the ratio to parent worked out at 0.75.

Still in this assay, the particulars now being: with V5-KSR [Drosophila], S2 cells, GST-HYP, Myc-MEK co-expressed, captured via GST-HYP, anti-V5 (KSR) blot, parent: 1.
Turning to chain 2 D194K V197E, the ratio to parent is 0.05.
Still for that read-out and setting: in the case of chain 2 S193A it was 0.98.
Consider chain 2 V197E, for which the ratio to parent amounted to 0.07.
Take chain 2 M196E: the ratio to parent was 0.49.
Consider chain 2 Q199A, for which the ratio to parent turned out to be 0.82.
For the variant chain 2 D194K, the ratio to parent was 0.08.

Still in this assay, the particulars now being: with V5-KSR [Drosophila]; S2 cells; GST-HYP + RRKM (Ha-RASV12, Pyo-RAF, V5-KSR, Myc-MEK) co-expressed; captured via GST-HYP; anti-V5 (KSR) blot; parent: 1.
Take chain 2 S193A: the ratio to parent stood at 1.
The same measure, in the same setting: in the case of chain 2 V197E it was 0.03; in that of chain 2 M196E, 0.26.
chain 2 Q199A: the ratio to parent was 0.73.
Same read-out and setting: the same measure for chain 2 D194K: 0.04.

The same assay, now with this note: with V5-KSR [Drosophila]; S2 cells; GST-HYP, Flag-CNK2–549 + RRKM co-expressed; captured via GST-HYP; anti-V5 (KSR) blot; parent: 1.
Regarding chain 2 I122D L151D, the ratio to parent is 0.01.
For chain 2 I122D, the ratio to parent came out at 0.76.
On to chain 2 L151D, for which the ratio to parent came out at 0.14.
